The record followed here is paper PMC2903388.

The target of test [1] is Mouse tail tendon type I collagen heterotrimer α1(I)2α2(I) (mouse) (UniProt P11087). Nature of the test: equilibrium microdialysis.
Test [2] concerns the target Mouse tail tendon type I collagen homotrimer α1(I)3 (mouse) (UniProt P11087). Put plainly: equilibrium microdialysis.

Mouse tail tendon type I collagen homotrimer α1(I)3 (mouse), sequence (P11087 152-1207): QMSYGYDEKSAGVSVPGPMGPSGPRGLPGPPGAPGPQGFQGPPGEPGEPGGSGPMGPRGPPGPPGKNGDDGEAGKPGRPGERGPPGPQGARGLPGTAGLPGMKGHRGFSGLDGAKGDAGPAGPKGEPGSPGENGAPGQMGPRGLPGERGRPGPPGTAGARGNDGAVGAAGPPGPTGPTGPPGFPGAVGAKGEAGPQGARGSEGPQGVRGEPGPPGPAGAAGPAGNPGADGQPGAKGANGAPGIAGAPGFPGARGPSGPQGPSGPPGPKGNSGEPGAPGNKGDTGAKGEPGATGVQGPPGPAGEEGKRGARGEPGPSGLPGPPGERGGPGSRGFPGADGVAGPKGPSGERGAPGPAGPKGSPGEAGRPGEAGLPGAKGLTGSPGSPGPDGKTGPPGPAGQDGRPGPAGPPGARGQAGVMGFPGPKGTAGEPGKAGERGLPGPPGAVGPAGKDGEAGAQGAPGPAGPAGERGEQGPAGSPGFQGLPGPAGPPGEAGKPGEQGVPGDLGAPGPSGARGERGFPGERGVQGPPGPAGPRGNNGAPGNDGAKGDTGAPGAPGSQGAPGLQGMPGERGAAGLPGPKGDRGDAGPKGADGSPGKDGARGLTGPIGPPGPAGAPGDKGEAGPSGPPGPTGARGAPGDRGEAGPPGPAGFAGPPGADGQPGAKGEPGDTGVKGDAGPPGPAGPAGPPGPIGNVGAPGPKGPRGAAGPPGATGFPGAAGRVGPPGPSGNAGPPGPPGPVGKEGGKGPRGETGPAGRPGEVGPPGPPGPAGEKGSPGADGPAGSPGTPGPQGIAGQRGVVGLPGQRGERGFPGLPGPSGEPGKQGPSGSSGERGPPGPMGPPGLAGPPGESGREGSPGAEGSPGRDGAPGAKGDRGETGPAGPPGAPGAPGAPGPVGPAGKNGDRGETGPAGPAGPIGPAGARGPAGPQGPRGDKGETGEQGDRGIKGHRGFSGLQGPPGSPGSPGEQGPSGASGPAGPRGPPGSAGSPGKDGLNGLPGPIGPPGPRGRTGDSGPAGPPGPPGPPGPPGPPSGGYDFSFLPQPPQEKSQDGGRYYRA
Mouse tail tendon type I collagen heterotrimer α1(I)2α2(I) (mouse), sequence (P11087 152-1207, chain 1 of 2): as the sequence (P11087 152-1207) above
Mouse tail tendon type I collagen heterotrimer α1(I)2α2(I) (mouse), sequence (Q01149 86-1125, chain 2 of 2, further chain): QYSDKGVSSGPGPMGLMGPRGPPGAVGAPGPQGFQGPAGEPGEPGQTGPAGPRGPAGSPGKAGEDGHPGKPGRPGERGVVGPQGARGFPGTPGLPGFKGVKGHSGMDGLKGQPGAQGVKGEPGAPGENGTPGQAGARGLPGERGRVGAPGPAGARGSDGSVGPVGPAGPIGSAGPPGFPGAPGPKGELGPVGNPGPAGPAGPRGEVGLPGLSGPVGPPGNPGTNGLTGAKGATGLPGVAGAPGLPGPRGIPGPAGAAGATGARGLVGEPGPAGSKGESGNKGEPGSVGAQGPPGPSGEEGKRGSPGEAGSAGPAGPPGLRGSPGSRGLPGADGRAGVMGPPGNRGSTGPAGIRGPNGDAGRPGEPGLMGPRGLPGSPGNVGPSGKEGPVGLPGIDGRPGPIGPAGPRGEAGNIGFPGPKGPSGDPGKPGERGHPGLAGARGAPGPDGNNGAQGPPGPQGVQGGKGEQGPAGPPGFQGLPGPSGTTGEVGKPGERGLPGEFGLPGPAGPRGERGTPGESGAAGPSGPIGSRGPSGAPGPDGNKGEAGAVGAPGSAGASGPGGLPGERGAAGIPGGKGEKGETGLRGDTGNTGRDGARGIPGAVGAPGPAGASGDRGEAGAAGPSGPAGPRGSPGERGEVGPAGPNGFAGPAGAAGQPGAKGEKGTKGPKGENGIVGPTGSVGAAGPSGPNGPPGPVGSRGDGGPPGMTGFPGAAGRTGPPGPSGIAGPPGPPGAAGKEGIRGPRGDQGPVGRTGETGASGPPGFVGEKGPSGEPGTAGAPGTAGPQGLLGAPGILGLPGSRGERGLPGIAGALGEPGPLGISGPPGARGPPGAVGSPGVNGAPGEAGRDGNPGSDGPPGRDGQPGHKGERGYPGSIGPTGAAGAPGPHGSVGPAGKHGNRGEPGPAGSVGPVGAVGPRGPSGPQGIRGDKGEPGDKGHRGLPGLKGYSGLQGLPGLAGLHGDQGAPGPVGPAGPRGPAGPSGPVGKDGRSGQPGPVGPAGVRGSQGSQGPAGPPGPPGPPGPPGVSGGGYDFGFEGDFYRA

For “MMP-1(E200A), activated recombinant human fibroblast collagenase with Glu-200 substituted with Ala (enzyme)”, in test [1], the KD, high-affinity site stood at 1300 nM; the KD, low-affinity sites was greater than 50000 nM; the N, high-affinity site (MMP-1(E200A) per collagen triple helix) was found to be 1. In test [2], this substance registered a KD, high-affinity site of 1300 nM; a KD, low-affinity sites greater than 50000 nM; a N, high-affinity site (MMP-1(E200A) per collagen triple helix) of 1.
